experiment: yeast display, Sf9 membrane polyspecificity reagent, FACS + sequencing; frameworks hold sequencing errors
How it was run: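 Using colony PCR, genes from sorted yeast display clones were amplified, then sequenced on MiSeq at 2 × 250 and filtered by CDR length. The clones had been stained with 10% biotinylated, detergent-solubilized Sf9 membrane reagent for 1 hour at 4 °C and sorted by FACS into low and high (top ~1%) gates on anti-HA and streptavidin fluorescence. Polyreactivity labels come from the gate of origin.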

Sequence | polyreactivity (PSR sort gate)
QVQLVESGGGLVQAGGSLRLSCAASGSTFALNAMGWYRQAPGKERELVAAITTGGHTYYADSVKGRFTISRDNAKNTDYLQMNSLKPEDTAVYYCATVFYFDYYYHYDYWGQGTQVTVSS | low polyreactivity
QVQLVESGGGLVQAGGSLRLSCAASGRIFYRYVMGWYREAPGKERELVAAIRNSGGSTYYADSVKGRFTISRDNAKNTVYLQMNSLKPEDTAVYYCAKRYGTSFYVGSAKIGYDYWGQGTQVTVSS | high polyreactivity
QVQLVESGGGLVHAGGSLRLTCAASGRTYRNGMGWYRQAPGKERELVAAISVSGTRTYYADSVKGRFTISRDNAKNTVYLQMNSLKPEDTAVYYCNADLSPTADDELDYRLVRDDYWGQGTQVTVSS | low polyreactivity
QVQLVESGGGLVQAGGSLRLSCAASGSIFSVYAMGWYRQAPGKERELVAAITSGTSTYADSVKGRFTISRDNAKNTVYLQMNSLKPEDTAVYYCAAEFLWIVDYWGQGTQVTVSS | low polyreactivity
QVQLVESGGGLVQAGGSLRLSCAASGSTFRYYTMGWYRQAAGQERELVAAITSGGGSTYYADSVKGRFTISRDNAKNTVYLQMNSLKPEDTAVYYCAARTRGTADNYWGQGTQGTVSS | high polyreactivity
QVQLVESGGGLVQAGGSLRLSCAASGRIFDLYAMGWYRQAPGKERELVAAITWRGGSTYYADSVKGRFTISRDNAKNTVYLQMNSLKPEDTAVYYCAARSYYISPWRFDYWGQGTQVTVSS | high polyreactivity
QVQLVESGGGLVQEGGSLRLSCAASGSTFNYYAMGWYRQAPGKESELVARISWSGSTYADSVKGRFTISRDNAKNTVYLQMNSLKPEDTAVYYCAAPYVLKSHRGMDYWGQGTQVTVSS | low polyreactivity
QVQLVESGGGLVQAGGILRLSCAASGYNFKYYAMGWYRQAPGKERELVAAISRSGGSTYYADSVKGRFTISRDNAKNTVYLQMNSLTPEDTAVYYCAAYTHYAYGHDYWGQGTQVTVSS | high polyreactivity
QVQLVESGGGLVQAGGSLRISCAASGYTFLAYAMGWYRQAPGKERELVAAISRSGVSTYYADSVKGRFTISRDNAKNTVYLQMYSLKTEYTAVYYFNARSGRQLARYGYWGHGTQVTVSS | high polyreactivity
QVQLVESGGGVVQAGGSLRLSCAASGRIFRGYVMGWYRQAPRKERELVAAITWSGANTYYADSVKGRFTISRDNAMNTVYLQMNSLKPEDSAVYYCAATVSYWSTKEDDYWGLGTQVTVSS | low polyreactivity
QVQLVESGGGLVQAGGSLRLSCAASGITFLPYAMGWYRQAPGKERELVAAISWRGGRTYYADSVKGRFTISRDNAKNTVYLQMNSLKPEDTAVYYCAAVLVRKSGITYDYWGQGTQVTVSS | high polyreactivity
QVQLVESGGGLVQAGGSLRLSCAASGLTFVWYAMGWYRQAPGKDRELVAAITLSGGSTYYADSGKGRFTISRDNAKNTVYLQMNSLIPEDTAVYYCAADGTYRPEDYDYWGQGTQVTVSS | low polyreactivity
QVQLVESGGGLVQSGGSLRLSCAASGRTFNANVMGWYRPAPGKERELVAAITYSGGSTYYADSVKGRFTISRDNAKNTVYLQMNSLKPEDTAVYYCAADYVYTFYYWGQGTQVTVSS | low polyreactivity
QVHVVESWGGLVQAGGSLSLSCAASGLIIWMYTMGWYRQAPWKERELVAAIDWSGGSTYYADSVKGRFTISRDNAKNTVYLQMNSLKPEDTAVYYCAADPEPSYRFDYWGQGTQVTVSS | low polyreactivity
QVQLVESGGGLVQAGGSLRLSCAASGSIFGTNGMGWYRQAPGKERELVAAITRRGGSTYADSVKGRFTISRDNAKNTVYLQMNSLKPEDTAVYYCAVDQGYVVRLAWIYGYWGQGTQVSVSS | low polyreactivity
QVQLVESGGGLVQAGGSLRLSSAASGSTFVYNYMGWYRQAPGKERELVAAIDSGGSTYYADSVKGRFTISRDNAKNTVYLQMNSLKPEDTAVYYCAASSDSYFGYHYYYWGQGTQVTVSS | low polyreactivity
QVQLVESGGGLVQAGGSLRLSCAASGRIFGGYAMGWYRQAPGKERELVAVISRGGSITDYADSVKGRFTISRDNAKNTVYLQMNSLKPEDTAVYYCAARICGGSYWGQGTQVTVSS | high polyreactivity
QVQLVESGGGLVQAGGSLRLSCDASGSTFYLYKGWYRQAPGKERELVAAITSGGRTYYADSVKGRFTISRDNAKNSVYLQMNSLKPVVSAVYYCARPYSRAYDYWGEGTQVTVSS | high polyreactivity
QVQLVESGGGLFQAGGSLRLSCAASGSIFRDNVMVWYIHAPGKERELVAVITSGGSTNYADSVKGRFTISRDNAKNTVYLQMNSLKPEDTAVYYCNAAKTGSQSRLEYWGQGTQVTVSS | high polyreactivity
QVQLQESGGGLVQAGGSLRLSCAASGTIFWLWAMGRYCQAPGQDRELVASISSGGTTYHADSVKGRFTISRDKAKNPVYRQMNSVKPEDTAVYYRAAFYVATAKLGYWGQGSQVTVSS | low polyreactivity
QVQLVQSGGGLVQAGGSLRLSCAASGRTIYSKAMGWYRQAPGKERELVAAITSTDDSTYYADSVKGRFTISRDNAKNTVYLQMNSLKPEDTAVYYCNTDGLIAIRGLWWVEYDYWGQGTQVTVSS | low polyreactivity
QVQLVESGGGLVQAGGRLRLSCAASGSIISYYAMGWYRQAPGKERELVATITSSGSTYADSVKGRFTISRDNAKNTVYLQMNSLKPEDTAVYYCNADSGYSEYWGVDVAYDYWGQGTQVTVSS | low polyreactivity

Sequence | polyreactivity (PSR sort gate)
QVQLVESGGGLVQAGGSLRLSCAASGRTFQANAMGWYRQAPGTERELVAAITGRGGTTYYADSVKGRFTISRDTAKNTVYVQMYSLKPEDTAVYYCALALSGYGFWGYDYWGLGTQVTVSS | low polyreactivity
QVQLVESGGGLVQAGGSLRLSCAASGITLWQYAMGWYRQAPGKERELVAGITDTGDSTYYADSVKGRVTISRDNAKNTVYLQMNSLKPEDTAVYYCAVPRSALLRAPYELYSWGQGTQVTVSS | low polyreactivity
QDQLVESGGGLVQAGGSLRLSCAASGSIFRKYVMGWYRQAPGKERELVAAISGSGGRTYYADSVKGRFTISRDNAKNTVYLQMNSLKPEDTAVYYSNAYPHAYTGSTREGDYWGQGTQVTVSS | high polyreactivity
QVQLVESGGGLVQAGGSLRLSCAASGSTFRYYVMGWYRQAPGKERELVAAISAGGGRTYYADSVKGRFTISRDNSKNTVYLQMNSLKPEDTAVYYCAAKSVTPYWQEYEYDYWGQGTQVTVSS | high polyreactivity
QVQLVESGGGLVQAGGSLRLSCAASGRTFLWNAMGWYRQAPGKERELITYYADSVKWRFTISRDNAKNTVYLQMNSLKPEDTAVYYCAAEQGSSVLYDSWGQGTQVTVSS | low polyreactivity
QVQLVESGGGLVQAGGSLRLSCAASGRIYWNTMGWYIQAPGKERELVASISTGGGRTYYADSVKGRFTISRDNAKNTVYLQMNSLKPEDTAVYYCAVRSYGHGFDYWGQGTQVTVSS | high polyreactivity
QVQLVESGGGLVQAGGSLRLSCDASGFTFYGYAMGWYRQAPGKERELVAAISGNGARTYYADSVKGRFTISRDNAKNTVYLQMNSLKPEDTAVYYCNADPATWWRNKEDYWGQGTQVTVSS | high polyreactivity
QEKLQESGSGLVQAGGSLRLSCAASGNIFQDWVMRWYRQAPGKERELVAAISPGAITYYADSVKGRFTISRDNAKNTVYLQTNSLKPEDTAVYYCAAYYIVEYLHGYWGQGTRVTVSS | low polyreactivity
QVQLVESGGGLVQAGGSLRLSCAASGSIFFHYAMGWYIQAPGKERELVAAITWDGGSTYYADSVKGRFTISRDNAKNTVYLQMNSLKPEDTAVYYCNADQDLSTDEDYWGQGTQVTVSS | low polyreactivity
QVQLVESGGALVQAGGSLRLSCAASGYIFAYYAMGWYRQAPGKERELVATISYGGGSTYYADSVKGRFTISRDNAKNTVYLQMNSLKPEDTAVYYCAAVPWASDGYYSWGQGTQVTVSS | low polyreactivity
QVQLVESGGGLVQAGGSHRLSCAASGRTFKGNAMGWYRQAPGQERELVAAISSRGGRTFYADSVKGRYTISRDNAKNTVYLQMNSLKPDDTAVYDCAAYSPLTKTPDSPVRYDYWGQGTQVTVSS | high polyreactivity
QVQLVESGGGLVQAGGSLRLSCAASGRIFDSYAMGWYRQAPGKERELVAAISFGGDTYYADSVKGRFTISRDNAKNTVYLQMNSLKPEDTAVYYCAKDNPAALFDSWGQGTQVTVSS | low polyreactivity
QVQLVESGGGLVQAGGSLRLSCAASGRTLLQYTKGWYRQAPGKERELGAAISWSGGRTYYADSVKGRFTISRDNAKNTVYLQMNSLKPEDTAVYYCAARGLKSQYYGAKHEYGYWGLGTQVTVSS | high polyreactivity
QVQLVESGGGLVQAGGSLRLSCAASGRIFVGYAMGWYRQAPGKERELVAAISSDGGSTYYADSVKGRFTISRDNAKNTVYLQMNSLKPEDSAVYYCNAYYGRFPYYADDYWGQGTQVTVSS | low polyreactivity
QVQLVESGGCLVQAGGSLRLSCAASGIIFYQNSMGWYRQAPGKERELVAAISRSGGTTYYADSVKGRFTISRDNAKNTVYLLMNSVNPEVTAVYYCAAVGTGSGYYYWGQGTQVTVSS | high polyreactivity
QVQLVESGGGLVQAGGSLRLSCAASGSIFSYNAMGWYREAPGKERELVAAISSRGRTYYADSVKGRFTISRDNAKNTVNLQMNSLKPEDTAVYYCAARGYWDLRTFYYWGQGTQVTVSS | high polyreactivity
QVQLVESGGGLVQAGGSLRLSCAASGLIFPCYDMGWYRQAPGKERELVAAISDSGANTYYADSVKGRFTISRDNAKNTVYFQMNSLKPEDTAVYYCAAESSWWYGTSFGRFDYWGQGTQVTVSS | low polyreactivity
QVQLVESGGGLVQAGGSLRLSCAASGLTFWKYTMGWYRQAPGKERELVAAISISGTNTYYADSVKGRFTISRDNAKNTVYLQMNSLKPEDTAVYYCAAVRGYPPTNYYYWGQGTQVTVSS | high polyreactivity
QDQLVESGGGLVQAGGSLRLSCAASGGTFGPNAMGWYRQSPGKERELVAAISASGGITYYADSVKGRFTISRDNAKNTVYLQMNSLKPEDTAVYYCAAAITWIYSQAAFKIVQYDYWGQGTQVTVSS | low polyreactivity
QVQLVESGGSLVQAGGSLRLSCASSGYIFRLYAMGWYRHAPGKEREYVATITASGGTYYADSVKGRFTISRDNAKNTVYLQMNSLKPEDTAVYYCAAAKLRRLSRVRYVYWGQGTQVTVSS | high polyreactivity
QVQLVESVGGLVQAGGSLRLSCAASGSIFGTYAMGWYRQAPGKERELVAAISWRGGTYYADSVKGRFTISRDNAKNTVYLQMNSLKPEDTAVYYCNKLYTHRALGRLDYWGQGTQVTVSS | high polyreactivity
